Test results as given in patent US20170296650A1 (Novartis, published 2017).

B1: 10P3 (antibody, V domains shown)
VH: EVQLVESGGGLVRPGGSLRLSCAASGFTFHNYRMNWVRQAPGKGLEWVANIKQDGSEKSYVDSVRGRFTTSRDNSKNSLYLQINSLRAEDTAVYYCARGEGYTYGVVYSYSAMDVWGQGTTVIVSS
VL: SYELTQPPSVSVSPGQTARITCSGNVLPNQYASWYQQKPGQAPVLVIYKDTERPSGIPGRFSGSSSGTTVTLTISGVQAEDEADYYCQSADSSGADYVFGTGTKVTVL
notes: human IgG
B2: 10F7 (antibody, V domains shown)
VH: EVQLVESGGGLVQPGRSLRLSCTASGFTFGDYAMSWFRQAPGKGLEWVGFIRSKAYGGTTEYAASVKGRFTISRDDSKSIAYLQMNSLKTEDTAVYYCTRASSLLWLLNPQPNFDYWGQGTLVTVSS
VL: SYVLTQPPSVSVAPGQTARITCGGNNIGSNNVHWYQQKPGQAPVLVVYDDSDRPSGIPERFSGSNSGNTATLTISRVEAGDEADYYCQVWDSSSDHPVFGGGTKLTVL
notes: human IgG; also called 10F7-biotin
B3: 8L13 (antibody, V domains shown)
VH: QVQLLESGGGVVQPGRSLRLSCAASGFTFSNYGMHWVRQAPGKGLEWVAVIWNDGSKKYYAESVKGRFTISRDNSKNTVYLQMNSLRAEDTAVYYCARDEGVQMVFAMPDYGMDVWGQGTTVTVSS
VL: SYELTQPPSVSVSPGQTASITCSGDKLGDKFACWYQQRPGQSPILVIYQDSKRPSGIPERFSGSNSGNTATLTIRGTQAMDEADYYCQAWDSSTAHYVFGTGTKVTVL
notes: human IgG
B4: 4N10 (antibody, V domains shown)
VH: QVQLVQSGAEVKKPGSSVRVSCKASGGTFSSYVIIWVRQAPGQGLEWMGGVIPIFDTVNYAQKFQGRVTITADESTSTAYMELSSLKSEDTAVYYCARGILAYCGGDCYNTPYGMDVWGQGTTVTVSS
VL: DIQMTQSPSILSASVGDRVTITCRASQSISSWLAWYQQKPGKAPKLLIYKASSLEIGVPSRISGSGSGTEFTLTISSLQPDDFATYYCQQYNSSWTFGQGTKVEIK
notes: human IgG; also called 4N10-biotin

What follows are binders tested against T1, hCMV gH + gL + UL128 + UL130 + UL131A (5-member complex; HEK293T co-transfectant) (hCMV, UniProt P12824 24-743; P16832 31-278; P16837 1-171; P16772 1-214) (assay: cell competition; competitor 1F11-biotin).
T1 construct: whole, on cells; in the functional rows it stands for the complex on virions or transduced cells of the strain or isolate named in the readout; also called gH/gL/UL128-131A complex; pentameric complex

In order of falling “Inhibition of binding (%)” value:
1. B2  100%
2. B3  100%
3. B1  0%
4. B4  0%

Each binder was assayed against T1, hCMV gH + gL + UL128 + UL130 + UL131A … (assay: cell competition; competitor 6G4-biotin).

In order of falling “Inhibition of binding (%)” value:
1. B1  0%
2. B2  0%
3. B4  0%

What follows are binders tested against T1, hCMV gH + gL + UL128 + UL130 + UL131A … (assay: cell competition; competitor 4I22-biotin).

In order of rising “Inhibition of binding (%)” value:
1. B1  0%
2. B4  0%
3. B2  100%

These binders were tested against T2, hCMV UL130 + UL131A (HEK293T co-transfectant) (hCMV, UniProt P16772 1-214) (assay: cell-based or functional assay).
T2 sequence (P16772 whole entry): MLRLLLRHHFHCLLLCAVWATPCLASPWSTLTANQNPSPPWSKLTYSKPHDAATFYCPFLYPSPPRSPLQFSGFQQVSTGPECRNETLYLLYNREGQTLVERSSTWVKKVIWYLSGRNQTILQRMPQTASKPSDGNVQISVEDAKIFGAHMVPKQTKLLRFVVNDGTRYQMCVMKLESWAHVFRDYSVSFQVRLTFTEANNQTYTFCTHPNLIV

B1 and B2 cannot be ordered by “50% neutralization VR1814, ARPE” value: less than 0.001 µg/mL for the first, less than 0.01 µg/mL for the second.

B3 and B4 cannot be ordered by “50% neutralization VR1814, ARPE” value: less than 0.01 µg/mL for the first, less than 0.001 µg/mL for the second.

B1 and B2 cannot be ordered by “50% neutralization VR1814, MRC-9” value: greater than 2 µg/mL for the first, no more than 2 µg/mL for the second.

B3 and B4 cannot be ordered by “50% neutralization VR1814, MRC-9” value: greater than 2 µg/mL for the first, no more than 2 µg/mL for the second.

Molecular target: T2, hCMV UL130 + UL131A (HEK293T …)
Assay: cell-based or functional assay
Remark: another data set of the same source

In order of rising “90% neutralization VR1814, ARPE” value:
1. B3  0.001 µg/mL
2. B2  0.002 µg/mL
3. B1  0.0025 µg/mL
4. B4  0.02 µg/mL

B1 and B2 cannot be ordered by “90% neutralization VR1814, MRC-9” value: greater than 10 µg/mL for the first, greater than 10 µg/mL for the second.

B3 and B4 cannot be ordered by “90% neutralization VR1814, MRC-9” value: greater than 10 µg/mL for the first, greater than 10 µg/mL for the second.

The binders below were run against T1, hCMV gH + gL + UL128 + UL130 + UL131A … (assay: cell competition; competitor 2C12-biotin).

In order of falling “Inhibition of binding (%)” value:
1. B1  0%
2. B2  0%
3. B4  0%

Each binder was assayed against T1, hCMV gH + gL + UL128 + UL130 + UL131A … (assay: cell competition; competitor 2F4-biotin).

In order of rising “Inhibition of binding (%)” value:
1. B1  0%
2. B4  0%
3. B2  100%

Each binder was assayed against T1, hCMV gH + gL + UL128 + UL130 + UL131A … (assay: cell competition; competitor 8I21-biotin).

In order of rising “Inhibition of binding (%)” value:
1. B1  0%
2. B2  0%
3. B4  90%

The binders below were run against T1, hCMV gH + gL + UL128 + UL130 + UL131A … (assay: cell competition; competitor 4N10-biotin).

In order of falling “Inhibition of binding (%)” value:
1. B4  100%
2. B2  0%

The binders below were run against T1, hCMV gH + gL + UL128 + UL130 + UL131A … (assay: cell competition; competitor 10F7-biotin).

In order of falling “Inhibition of binding (%)” value:
1. B2  100%
2. B3  100%
3. B4  0%

What follows are binders tested against T1, hCMV gH + gL + UL128 + UL130 + UL131A … (assay: cell competition; competitor 5A2-biotin).

In order of rising “Inhibition of binding (%)” value:
1. B2  0%
2. B4  100%

These binders were tested against T1, hCMV gH + gL + UL128 + UL130 + UL131A … (assay: cell competition; competitor 15D8-biotin).

In order of falling “Inhibition of binding (%)” value:
1. B1  0%
2. B2  0%
3. B4  0%
